According to PMC12781075, “Crosstalk between arachidonic acid metabolism and glycolysis drives integrated metabolic-inflammatory reprogramming in macrophages” (International Journal of Biological Sciences, 2026):
“And” between values parts separate entries of the source, which are not always exact repeats. Equal values may be shown once.

Molecular target: pyruvate kinase M2 (mouse (endogenous in RAW264.7)) (UniProt P52480)
Assay: cross-linking; RAW264.7 macrophages treated with 15KPF, lysed, lysate incubated with 2.5 mM disuccinimidyl suberate for 30 min; 10% SDS-PAGE and PKM2 immunoblot

Sequence of pyruvate kinase M2, P52480 1-531 (enzyme; other documents disagree on this pair) (P52480 whole entry): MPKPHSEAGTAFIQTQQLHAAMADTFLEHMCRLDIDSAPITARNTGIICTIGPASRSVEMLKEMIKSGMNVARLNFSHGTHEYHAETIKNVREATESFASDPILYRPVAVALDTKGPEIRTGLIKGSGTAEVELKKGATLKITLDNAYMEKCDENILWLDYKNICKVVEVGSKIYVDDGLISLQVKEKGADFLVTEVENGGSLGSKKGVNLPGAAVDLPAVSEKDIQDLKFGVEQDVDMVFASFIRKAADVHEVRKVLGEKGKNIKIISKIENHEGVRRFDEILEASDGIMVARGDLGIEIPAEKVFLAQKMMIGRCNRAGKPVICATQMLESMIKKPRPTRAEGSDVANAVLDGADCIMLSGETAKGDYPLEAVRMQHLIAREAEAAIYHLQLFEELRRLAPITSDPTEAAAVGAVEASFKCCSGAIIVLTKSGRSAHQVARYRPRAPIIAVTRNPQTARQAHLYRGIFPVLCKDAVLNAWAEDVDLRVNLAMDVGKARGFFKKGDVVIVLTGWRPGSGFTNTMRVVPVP

- stoichiometry N: 4 and 2
Substance: pyruvate kinase M2, P52480 1-531 (enzyme; other documents disagree on this pair)
